Results: article PMC11542851 (PLOS Pathogens, 2024)
Positions count from the first letter of the chain named. Read-outs that look alike come from different tables or passages of the source.

B1: C68.88 (antibody, V domains shown)
VH: QVQLQESGPGLVKPSETLSLTCSVSGGPISSSRYYWGWIRQSPGEGLEWIGTIYYSGSTYYNPSFKSRVTISVDTSKNQFSLKLSSVTAADTAVYYCATRCYDFWSGYYNREMLWFDCWGQGTLVTVSS
VL: NFMLTQPHSVSESPGKTVTISCTRSSGSIASNYVQWYQQRPGSSPTTVIYENNQTPSGVPDRFSGSIDSSSNSASLTISGLKTEDEADYYCQSYDSSVVVFGGGTKLTVL
B2: C68.61 (antibody, V domains shown)
VH: EVQLVQSGAEVKKPGESLKISCKGSAYIFTRYWIGWVRQMPGKGLEWMGIIYPGDSDTRYSPSFQGQVTISADKSISTAYLQWSSLKASDTAMYYCARSGTTNYFDYWGQGTLVTVSS
VL: DIQLTQSPSTLSASVGDRVTITCRASQSISSWLAWYQQKPGKAPKLLIYDASSLDSGVPSRFSGSGSGTDFTLTISSLQPDDFATYYCQQFNSYWTFGQGTKVEIK
B3: C68.203 (antibody, V domains shown)
VH: EVQLLESGGGLVQPGGSLRLSCTASGFTFSRYALTWVRQAPGKGLECVSAFSGSGDSTYYADSVKGRFTISRDNSKNTLYLQMNSLRAEDTAVYYCAKSPRYNSDYFDFWGQGTLVTVSS
VL: B2 VL with D55E, D70E, F91Y, Y94F, W95I, K102R, V103L
B4: C68.200 (antibody, V domains shown)
VH: B3 VH with C47W, F51I, D56G, S57N, Y59N, S104N
VL: B2 VL with D55E, D70E, F91Y, S93T, Y94F, W95I, Q99H, K102R, V103L
B5: C68.348 (antibody, V domains shown)
VH: QVQLQESGPRLVKSSGTLSLTCAVSGGSISSSKWWSWVRQPPGKGLEWIGEVYHGGSTNYNPSLKSRVTISVDKAKNQFSLKLSSVTAADSAVYYCASLDSAAVFDYWGQGTLVTVSS
VL: QSALTQPASVSGSPGQSITISCTGTSSDVGRFNYVSWYQQHPGKAPKLLIYDVSNRPSGVSNRFSGSKSGNTASLTISGLQAEDEADYYCNSYTSSSTLYVFGTGTKVTVL
B6: C68.183 (antibody, V domains shown)
VH: EVQLLESGGGLVQPGGSLRLSCVASGFTFRNFAMSWVRQAPGKGLEWVSAISGSGDSTYYADSVKGRFTISRDNSKNTLYLQVNSLRVEDTAIYYCAKGSRGSTDYFDSWGQGTLVTVSS
VL: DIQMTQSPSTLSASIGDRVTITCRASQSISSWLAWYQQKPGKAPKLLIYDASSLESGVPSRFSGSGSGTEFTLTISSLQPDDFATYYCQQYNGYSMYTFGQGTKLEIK
B7: C68.201 (antibody, V domains shown)
VH: EVQLVQSGAEVKKPGESLKISCTGSGYSFAYYWIGWVRQMPGKGLEWMGNIYPGDSDTRYSPSFQGQITISSDKSISTAYLQWSSLKASDTAMYYCATRYSGTHYVGIDAFEIWGQGTMVTVSS
VL: not shown
B8: C68.239 (antibody, V domains shown)
VH: EVQLLESGGGLVQPGGSLRLSCAASGFTFSSYAMSWVRQAPGKGLEWVSAISGGGDNTYYADSVKGRFTISRDNSKNTLYLQMNSLRAEDTAVYFCAKNPITVVPAAWDRGYFDLWGRGTLVTVSS
VL: SYELTQPPSVSVAPRKTARITCGGNNIGSYSVHWYQQRPGQAPVLVVHDDSDRPSGIPERFSGSNSGNTATLTISRVEAGDEADYYCQVWDSSSDHRGVFGGGTKLTVL
B9: C68.327 (antibody, V domains shown)
VH: EVQLLESGGGLVQPGGSLRLSCAASGFTFGSYAMSWVRQAPGKGLEWVSAISGSGGSTYYADSVKGRFTISRDNSKNTLYLQMNSLRAEDTAVYNCAKDLWDGFHWFDSWGQGTLVTVSS
VL: DIQMTQSPSSVSASVGDRVTITCRASQGISSWLAWYQQKPGKAPNLLIYSASSLQSGVPSRFSGSGSGTDFTLTISSLQPEDFATYYCQQANSFPITFGQGTRLEIK
B10: C68.185 (antibody, V domains shown)
VH: QVQLVQSGAEVKKPGASVKVSCKTSGYAFTDHYVHWVRQAPGQGLEWMGVINPSGVGTSYAQMFQDRVTLTSDTSTSTVYMVLSSLRSEDTAVYYCVRDDYGVPARGWFDPWGQGTLVTVSS
VL: EVVLTQSPATLSLSPGERATLSCRASQSISSYLAWYQQKPGQAPRLLIYDASNRATGVPARFSGSGSGADFTLTISSLEAEDFALYYCQHRSNWLYTFGQGTKLEIK

Key:
[1] = target: RsSHC014 RBD, yeast-displayed (Bat SARS-like coronavirus RsSHC014, UniProt U5WLK5); assay: flow cytometry on cells; conditions: one partner purified
[2] = target: T1, SARS-CoV-2 RBD subunit (recombinant) (SARS-CoV-2 Wuhan-Hu-1, UniProt P0DTC2); assay: ELISA; conditions: both partners purified
T1 construct: source: bought: Sino Biologics

[3] = target: SARS-CoV-2 Omicron XBB recombinant spike protein (trimer) (SARS-CoV-2 Omicron XBB (entry: XBB.1), strain)
[4] = target: T1, SARS-CoV-2 RBD subunit (recombinant)
[5] = target: SARS-CoV-1 RBD, yeast-displayed (SARS-CoV-1, strain  (P59594 …, UniProt P59594)); assay: flow cytometry on cells; conditions: one partner purified

Binder | binding result [1] | binding result [2] | further results
B1 | binds | binds | 
B2 | binds |  | 
B3 |  | binds | 
B4 |  | binds | 
B5 |  | binds | 
B6 | binds | binds | 
B7 |  |  | binding result [3]: binds; binding result [4]: binds
B8 | binds | binds | 
B9 |  | binds | 
B10 |  | binds | fold lower binding than to SARS-CoV-1 RBD [1]: ~10 fold; binding result [5]: binds
